Kd data for 1 molecule are collected here from publication PMC9288159, “Identification of a guanine-specific pocket in the protein N of SARS-CoV-2”.

The target in the data set is SARS-CoV-2 N protein C-terminal domain (NCTD) (SARS-CoV-2, UniProt P0DTC9 256-364). The data set can be described thus: EMSA; […]; binding buffer not stated ([…]. To be noted: protein: recombinant; tags: N-terminal His6-TEV site (pET28a); chain copies: 2; label: 5' IRDye-800CW.

Regarding CGGUUUCGCCG (ssRNA) [Oligo-G (SL5a apical region)], the equilibrium dissociation constant (Kd) is 32 ± 5 nM.
